Assay results taken from patent US10640563B2, “Anti-B7-H3 antibodies and antibody drug conjugates” (AbbVie Inc., priority 2016, dated 2020).

How the values were obtained:
[1] = tested on: HCC38 (breast cancer) cells; assay: In vitro cell viability assay (CellTiter-Glo), HCC38; assay type: cell-based, human; details: for cytotoxicity in cells expressing human B7-H3 (in words): antibody conjugated to synthon CZ; for IC50: ADC with synthon CZ, HCC38 breast cancer cells, viability after 5 days, read-out: Cytotoxicity (HCC38 cell line IC50nM)
Description: (§1) Nine anti-B7-H3 chimeric antibodies were conjugated to the Bcl-xL inhibiting (Bcl-xLi) synthon CZ (Example 2.1) using conjugation Method A described below. The resulting ADCs (anti-B7-H3 antibodies conjugated to synthon CZ) were tested for binding to cell surface human B7-H3 by FACS (as described in Example 6) and for cell cytotoxicity in cell lines expressing B7-H3. […] Table 6 provides cell surface binding and cytotoxicity activity of anti-B7-H3 chimera ADCs against breast cancer cell HCC38 expressing human B7-H3.
The tumor cell lines HCC38 (breast cancer), NCI-H1650 (NSCLC) and NCI-H847 (small cell lung cancer cell line) were obtained from American Type Culture Collection (ATCC). Cells were grown in 96-well culture plates using recommended growth media overnight at a density of 5×10^3 (HCC38) or 20×10^3 (NCI-H847) or 40×10^3 (NCI-H1650) per well. The following day, treatments were added in fresh media to triplicate wells. Cellular viability was determined 5 days later using the CellTiter-Glo Luminescent Cell Viability Assay kit (Promega), as directed in the manufacturer's protocol. Cell viability was assessed as percentage of control untreated cells.

[2] = Observation after conjugation to synthon (Method A); assay type: physicochemical; details: after conjugation to Bcl-xLi synthon CZ
Description: as §1
A solution of Bond-Breaker™ tris(2-carboxyethyl)phosphine (TCEP) solution (10 mM, 0.017 mL) was added to a solution of antibody (10 mg/mL, 1 mL) preheated to 37° C. The reaction mixture was kept at 37° C. for 1 hour. The solution of reduced antibody was added to a solution of synthon (3.3 mM, 0.160 mL in DMSO) and gently mixed for 30 minutes. The reaction solution was loaded onto a desalting column (PD10, washed with Dulbecco's phosphate-buffered saline [DPBS] 3× before use), followed by DPBS (3 mL). The purified ADC solution was filtered through a 0.2 micron, low protein-binding 13 mm syringe-filter and stored at 4° C.

[3] = Size exclusion chromatography, % aggregate of ADC; assay type: physicochemical; details: ADC with synthon CZ, conjugation Method A
Description: The DAR and percentage aggregation of ADCs synthesized were determined by LC-MS and size exclusion chromatography (SEC), respectively.
Size exclusion chromatography was performed using a Shodex KW802.5 column in 0.2 M potassium phosphate pH 6.2 with 0.25 mM potassium chloride and 15% IPA at a flow rate of 0.75 ml/min. The peak area absorbance at 280 nm was determined for each of the high molecular weight and monomeric eluents by integration of the area under the curve. The % aggregate fraction of the conjugate sample was determined by dividing the peak area absorbance at 280 nm for the high molecular weight eluent by the sum of the peak area absorbances at […] of the high molecular weight and monomeric eluents multiplied by 100%.

[4] = Aggregation of conjugates by SEC; assay type: physicochemical
NCI-H146 cells = assay: In vivo xenograft model of small cell lung cancer (NCI-H146); design: species or system mice; details: 6 mg/kg/IP/QDx1
HCC38 cell line = assay: Cell cytotoxicity of ADCs in HCC38 cell line; assay type: cell-based; details: CZ conjugates
Description: The humanization of chAb18 generated 10 variants (described above in Table 9) that retained binding to human and cyno B7-H3 as assessed by FACS (the method of which is described above in Example 6). These variants were further characterized for binding by SPR and were successfully conjugated to the Bcl-xL inhibitor synthon CZ using Method A (described above) and assessed for cell cytotoxicity as described in Example 7. The parental chAb18 from which the variants were derived was also tested as a comparator. All humanized variants had similar binding properties as assessed by biacore, and retained binding activity to cell surface expressed as conjugates with the CZ synthon. The cytotoxicity of all of the variants as CZ synthons were similar to the chAb18 from which they were derived.
Humanized chAb18 variants were conjugated to the CZ synthon and tested for cytotoxicity in HCC38 cell line.

[5] = Table 10, CZ conjugates of Ab18 variants

B1: chAb2 (conjugate)
VH: QVQLQQPGAELVKPGASVKLSCKASGYTFTSYWMHWVKQRPGQGLEWIGMIHPDSGTTNYNEKFRSKATLTVDKSSSTAYMQLSSLTSEDSAVYYCAVYYGSTYWYFDVWGTGTTVTVSS
VL: DVVMTQTPLSLPVSLGDQAYISCRSSQSLVHINGNTYLHWYRQKPGQSPKLLIYKVSNRFSGVPDRFSGSGSGTDFTLKISRVEAEDLGVYFCSQSTHFPFTFGSGTKLEIK
modifications: conjugated payload not specified; Synthetic chAb2 VH amino acid sequence; Synthetic chAb2 VL amino acid sequence
cytotoxicity in cells expressing human B7-H3 (in words) [1]: weak cytotoxicity | Conjugation observation [2]: precipitated

B2: chAb6 (conjugate)
VH: QVQLQQSGAELMKPGASVKISCKATGYTFSRYWIEWVKQRPGHGLEWIGEILPGSGSTNYNEKFKGKATFTADTSSNTAYMQVSSLTSEDSAVHYCARRGYGYVPYALDYWGQGTSVTVSS
VL: EIQMTQTTSSLSASLGDRVTISCRASQDISNSLNWYQQKPDGTVNLLIYYTSRLYSGVPSRFSGSGSGTDYSLTISNLEQEDIATYFCQQGNTLPYTFGGGTKLEIK
cytotoxicity in cells expressing human B7-H3 (in words) [1]: weak cytotoxicity | Conjugation observation [2]: precipitated

B3: chAb16 (conjugate)
VH: EVKLLESGGGLVQPGGSLKLSCAASGFDFSRYWMSWVRQAPGKGLEWIGEINPDSSTINYTPSLKDKFIISRDNAKNTLYLQMSKVRSEDTALYYCARPGFGNYIYAMDYWGQGTSVTVSS
VL: DIQMTQTTSSLSASLGDRVTINCRASQDISNFLNWYQQKPDGTVKLLIYYTSRLYLGVPSRFSGSGSGTDYSLTISNLEQEDIATYFCQQGNTLPPTFGGGTKLEIK
modifications: conjugated drug; Synthetic chAb16 VH amino acid sequence; Synthetic chAb16 VL amino acid sequence
cytotoxicity in cells expressing human B7-H3 (in words) [1]: weak cytotoxicity | Conjugation observation [2]: precipitated

B4: chAb4-CZ (conjugate)
VH: QVQLQQPGAELVKPGASVKLSCKASGYSFTSYWMHWVKQRPGQGLEWIGMIHPNSGSNNYNEKFKSKATLTVDKSSNTAYMQLSSLTSEDSAVYYCARRLGLHFDYWGQGTTLTVSS
VL: DIVMTQSQKFMSTPVGDRVSITCKASQNVGTAVAWYQQKPGQSPKLLIYSASNRYTGVPDRFTGSGSGTDFTLTISNMQSEDLADYFCQQYSSYPYTFGGGTKLEIK
IC50 [1]: 0.26 nM | Conjugation observation [2]: Clear | % agg by SEC [3]: 5.7%

B5: chAb11-CZ (conjugate)
VH: EVKLVESGGGLVQPGGSLRLSCATSGFTFTNYYMSWVRQPPGKALEWLGFIRNKANDYTTEYSASVKGRFTISRDNSQSILYLQMNTLRAEDSATYYCARESPGNPFAYWGQGTLVTVSA
VL: DIVMTQSPSSLTVTAGEKVTMTCKSSQSLLNSGTQKNFLTWYQQKPGQPPKLLIYWASTRESGVPDRFTGSGSGTDFTLTISSVQAEDLAVYFCQNDYIYPLTFGAGTKLELK
IC50 [1]: 2.34 nM | Conjugation observation [2]: Clear | % agg by SEC [3]: 5.6%

B6: huAb18v1-CZ (conjugate)
VH: EVQLVQSGAEVKKPGSSVKVSCKASGYSFTSYTIHWVRQAPGQGLEWMGYINPNSRNTDYNQKFKDRVTITADKSTSTAYMELSSLRSEDTAVYYCARYSGSTPYWYFDVWGQGTTVTVSS
VL: DIQLTQSPSFLSASVGDRVTITCRASSSVSYMNWYQQKPGKAPKLLIYATSNLASGVPSRFSGSGSGTEFTLTISSLQPEDFATYYCQQWSSNPLTFGQGTKLEIK
% agg by SEC [4, 5]: 3.3% | TGD (%) (NCI-H146 cells; Table 11): 45% | TGImax (%) (NCI-H146 cells; Table 11): 79% | IC50 (HCC38 cell line; Table 10): 390 pM

B7: huAb18v3-CZ (conjugate)
VH: EVQLVQSGAEVKKPGSSVKVSCKASGYSFTSYTIHWVRQAPGQGLEWIGYINPNSRNTDYNQKFKDRTTLTADRSTSTAYMELSSLRSEDTAVYYCARYSGSTPYWYFDVWGQGTTVTVSS
VL: DIQLTQSPSFLSASVGDRVTITCRASSSVSYMNWYQQKPGKSPKPWIYATSNLASGVPSRFSVSVSGTEHTLTISSLQPEDFATYYCQQWSSNPLTFGQGTKLEIK
% agg by SEC [4, 5]: 3.6% | TGD (%) (NCI-H146 cells; Table 11): 39% | TGImax (%) (NCI-H146 cells; Table 11): 81% | IC50 (HCC38 cell line; Table 10): 320 pM

B8: huAb18v4-CZ (conjugate)
VH: EVQLVQSGAEVKKPGSSVKVSCKASGYSFTSYTIHWVRQAPGQGLEWMGYINPNSRNTDYAQKFQGRVTLTADKSTSTAYMELSSLRSEDTAVYYCARYSGSTPYWYFDVWGQGTTVTVSS
VL: DIQLTQSPSFLSASVGDRVTITCRASSSVSYMNWYQQKPGKSPKPWIYATSNLASGVPSRFSVSVSGTEHTLTISSLQPEDFATYYCQQWSSNPLTFGQGTKLEIK
% agg by SEC [4, 5]: 5.5% | TGD (%) (NCI-H146 cells; Table 11): 48% | TGImax (%) (NCI-H146 cells; Table 11): 85% | IC50 (HCC38 cell line; Table 10): 290 pM

B9: huAb18v6-CZ (conjugate)
VH: EVQLVQSGAEVKKPGSSVKVSCKASGYSFTSYTIHWVRQAPGQGLEWMGYINPNSRNTDYAQKFQGRVTLTADKSTSTAYMELSSLRSEDTAVYYCARYSGSTPYWYFDVWGQGTTVTVSS
VL: EIVLTQSPDFQSVTPKEKVTITCRASSSVSYMNWYQQKPDQSPKLLIKATSNLASGVPSRFSGSGSGTDFTLTINSLEAEDAATYYCQQWSSNPLTFGQGTKLEIK
% agg by SEC [4, 5]: 3.5% | TGD (%) (NCI-H146 cells; Table 11): 45% | TGImax (%) (NCI-H146 cells; Table 11): 86% | IC50 (HCC38 cell line; Table 10): 140 pM

B10: huAb18v7-CZ (conjugate)
VH: EVQLVQSGAEVKKPGSSVKVSCKASGYSFTSYTIHWVRQAPGQGLEWMGYINPNSRNTDYAQKFQGRVTLTADKSTSTAYMELSSLRSEDTAVYYCARYSGSTPYWYFDVWGQGTTVTVSS
VL: EIVLTQSPDFQSVTPKEKVTITCRASSSVSYMNWYQQKPDQSPKPWIYATSNLASGVPSRFSVSVSGTDHTLTINSLEAEDAATYYCQQWSSNPLTFGQGTKLEIK
% agg by SEC [4, 5]: 3.6% | TGD (%) (NCI-H146 cells; Table 11): 42% | TGImax (%) (NCI-H146 cells; Table 11): 87% | IC50 (HCC38 cell line; Table 10): 30 pM

B11: huAb18v9-CZ (conjugate)
VH: EVQLVQSGAEVKKPGSSVKVSCKASGYSFTSYTIHWVRQAPGQGLEWIGYINPNSRNTDYNQKFKDRTTLTADRSTSTAYMELSSLRSEDTAVYYCARYSGSTPYWYFDVWGQGTTVTVSS
VL: EIVLTQSPDFQSVTPKEKVTITCRASSSVSYMNWYQQKPDQSPKPWIYATSNLASGVPSRFSVSVSGTDHTLTINSLEAEDAATYYCQQWSSNPLTFGQGTKLEIK
% agg by SEC [4, 5]: 3.8% | TGD (%) (NCI-H146 cells; Table 11): 35% | TGImax (%) (NCI-H146 cells; Table 11): 83% | IC50 (HCC38 cell line; Table 10): 900 pM

B12: huAb3v6-CZ (conjugate)
VH: EVQLVQSGAEVKKPGSSVKVSCKASGYTFSSYWMHWVRQAPGQGLEWIGLIHPDSGSTNYNEMFKNRATLTVDRSTSTAYVELSSLRSEDTAVYFCAGGGRLYFDYWGQGTTVTVSS
VL: DVVMTQSPLSLPVTPGEPASISCRSSQSLVHSNGDTYLRWYLQKPGQSPQLLIYKVSNRFSGVPDRFSGSGSGTDFTLKISRVEAEDVGVYYCSQSTHVPYTFGGGTKVEIK
% agg by SEC ([4]; Table 14, CZ conjugates of Ab3 variants): 4.9% | TGD (%) (NCI-H146 cells; Table 15): 88% | TGImax (%) (NCI-H146 cells; Table 15): 91% | IC50 (HCC38 cell line; Table 14): 130 pM
